B1: {Lys(DABSYL)}QELAAIEWELAANERELAAIEGCFNKTFLDKFNHEAEDLFYQSSLARIAALKYKNAALK{LYS(FITC)} (peptide)
chain: K(DABSYL)QELAAIEWELAANERELAAIEGCFNKTFLDKFNHEAEDLFYQSSLARIAALKYKNAALKK(FITC)
B2: {Lys(DABSYL)}QELAAIEWELAANERELAAIEGCFNKTFLDKFNHEAEDLFYQSSLARIAALKYKNAALKKKIAALKQ{LYS(FITC)} (peptide)
chain: K(DABSYL)QELAAIEWELAANERELAAIEGCFNKTFLDKFNHEAEDLFYQSSLARIAALKYKNAALKKKIAALKQK(FITC)
B3: {Lys(DABSYL)}QELAAIEWELAANERELAAIEGCFNKTFLDKFNHEAEDLFYQSSLARIAALKYKNAALKKKIA{LYS(FITC)} (peptide)
chain: K(DABSYL)QELAAIEWELAANERELAAIEGCFNKTFLDKFNHEAEDLFYQSSLARIAALKYKNAALKKKIAK(FITC)

The star is where a group is joined. FITC = O=C1OC2(c3ccc(O)cc3Oc3cc(O)ccc32)c2ccc(NC(=S)*)cc21; DABSYL = CN(C)c1ccc(/N=N/c2ccc(S(=O)(=O)*)cc2)cc1

From US20230194525A1, “PEPTIDE BASED PROBES FOR THE DETECTION OF SARS-COV-2” (priority 2021, published 2023) come the findings set out here.

This assay deals with L subunits (L1, L2, L3). As to the kind of experiment: Titration of R units against L subunits, fluorescence intensity after 2 hours. The assay is classed as binding. The conditions noted are these: R 400 nM to 100 pM against 50 nM L in 1×PBS, pH 7.4, 20-25° C., only rank order given.
Experimental: Residual fluorescence can be due to remaining unreacted L subunits.
In FIG. 4B, R units (400 nM to 100 pM in 1×PBS, pH 7.4) are titrated against 50 nM of L subunits in 1×PBS, pH 7.4 at 20-25° C. and the fluorescence intensities measured after 2 hours. […] All the measurements were performed in triplicates (n=3) and the error bar represents the standard deviation of the data. Statistical analysis was performed using Unpaired t test in GraphPad software and the calculated P is represented as follows: **P<0.01.
Take B1: the “affinity of R subunits toward L subunits (Kd values), preferential order” value is recorded as “RL3>RL1>RL2”. As for B2, the entry is “RL3>RL1>RL2”. As for B3, the entry is “RL3>RL1>RL2”.
